Laboratory results reported in WO2023190852A1 (dated 2023).

Columns and labels:
[1] = biological target: spike protein (RBD region) derived from the South African mutant strain (BA.4 strain) (SARS-CoV-2)
[2] = biological target: RBD derived from the Omicron strain (BA.4 and BA.5 strains) (SARS-CoV-2)
[3] = biological target: RBD derived from the Omicron strain (BA.1 strain; B.1.1.529) (SARS-CoV-2)

B1: natural human IgG antibody (HIG001697) (antibody, V domains shown)
VH: EVQLVESGGGLVQPGGSLRLSCTASEIIVTRNYMTWVRQAPGKGLEWVAQIYPGGTTYYADSVKGRFTISRHNSMNTMYLQMNSLRTEDTAVYYCARSRGGVDDFWGQGTLVTVSS
VL: DIQMTQSPSSLSASVGDRVTITCQASQDINKFLNWYQQKPGHAPKLLIYDALNLEAGVPSRFSGSASGTYFTFTITSLQPEDIATYYCQQYDNIPPTYGGGTKVDIKR
B1 gave a Kd [1] of 0.282 nM, a Kd [2] of 9.96 nM and a Kd [3] of 1.33 nM.
